The supplement of paper PMC6757056
± gives the standard deviation of the averaged measurements.

B1: library; a variant is named by its letters at N, in order (parent)
chain: GCUGUCACCGGUGCUUGGUACGUUAUAUUCAGCCGGUCUGAUGAGUCUNNNNNNAGACGAAACAGC

Key:
(6R,S)-folinic acid [1] = variants of: B1; assay: normalized RNA/DNA level without ligand (relative to sTRSVctl = 100) (log10 (% of sTRSVctl)); HEK293T overexpressing SLC46A1; higher = less ribozyme self-cleavage, higher mRNA level; details: without (6R,S)-folinic acid; ligand present: no
How it was run: (§1)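 Ribozyme switch library plasmids linked to reporters were introduced into HEK293T cells at 4 µg per 6-well well, with ligand, if any, added 1 h before. Total RNA was extracted with EDTA 72 h later, reverse-transcribed, amplified, barcoded and sequenced. RNA level was computed from RNA over DNA reads relative to a spiked-in non-cleaving sequence or the top sequences, then scaled and log-transformed. The top set was 25 sequences, values were ×100 and log10, and the cutoff was ≥100 DNA reads.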

(6R,S)-folinic acid [2] = variants of: B1; assay: normalized RNA/DNA level with ligand (relative to sTRSVctl = 100) (log10 (% of sTRSVctl)); HEK293T overexpressing SLC46A1; ligand concentration (+) RNA-Seq: 6 mM; higher = less ribozyme self-cleavage, higher mRNA level; details: with (6R,S)-folinic acid; ligand present: yes
How it was run: as §1

(6R,S)-folinic acid [3] = variants of: B1; assay: FACS-Seq fitted mean relative fluorescence mCherry/BFP without ligand (log10 relative fluorescence); HEK293T overexpressing SLC46A1; higher = higher reporter protein expression; details: without (6R,S)-folinic acid; ligand present: no
How it was run: (§2)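 After lentiviral transduction, HEK293T library cells bearing an mCherry ribozyme-switch reporter and an EF1α-BFP marker were enriched. They were then held for 48 h with or without ligand and sorted by mCherry/BFP into 6 bins, and each bin's genomic DNA was PCR-amplified, barcoded and MiSeq-sequenced. Fluorescence is expressed as a normalized fitted mean: the normal mean of log10(mCherry/BFP) bin counts, scaled to five spiked-in control ribozymes.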

(6R,S)-folinic acid [4] = variants of: B1; assay: FACS-Seq fitted mean relative fluorescence mCherry/BFP with ligand (log10 relative fluorescence); HEK293T overexpressing SLC46A1; ligand concentration (+) FACS-Seq: 6 mM; higher = higher reporter protein expression; details: with (6R,S)-folinic acid; ligand present: yes
How it was run: as §2

Variant	normalized RNA/DNA level without ligand (log10) ((6R,S)-folinic acid [1])	normalized RNA/DNA level with ligand (log10) ((6R,S)-folinic acid [2])	FACS-Seq fitted mean (log10) ((6R,S)-folinic acid [3])	FACS-Seq fitted mean (log10) ((6R,S)-folinic acid [4])
CAAGGC	1.993 ± 0.019	1.99 ± 0.035		
AUUAGG	1.9 ± 0.023	2.01 ± 0.028	0.125 ± 0.18	0.123 ± 0.074
AUUAGA	1.965 ± 0.004	2.01 ± 0.033	0.0629 ± 0.005	-0.224 ± 0.063
CAAUCG	2.024 ± 0.012	2.02 ± 0.0061		
CAAUCU	2.045 ± 0.0088	2.05 ± 0.028		
CAAUCA	2.001 ± 0.0045	2.02 ± 0.033		
CAAUCC	2.023 ± 0.0031	2.02 ± 0.049		
UAAGUA	1.896 ± 0.0077	1.98 ± 0.034		
CUUUUC	2.06 ± 0.023	2.02 ± 0.036	0.721 ± 0.2	0.481 ± 0.091
CUUUUU	1.991 ± 0.013	2.021 ± 0.018	0.61 ± 0.16	0.733 ± 0.016
GAAAAA	1.986 ± 0.0038	2.01 ± 0.038		
GAAAUC	2.044 ± 0.0097	2.027 ± 0.018		
GAAAUU	2.03 ± 0.0031	2.05 ± 0.025		
CUUGGC	2.062 ± 0.0022	2.04 ± 0.037	0.556 ± 0.084	0.651 ± 0.35
CUUGGG	1.9697 ± 0.0016	2.04 ± 0.03	0.49 ± 0.05	0.119 ± 0.14
CUUGGA	2.001 ± 0.019	1.99 ± 0.025	0.658 ± 0.053	0.547 ± 0.15
GUUAUA	1.99 ± 0.031	2.012 ± 0.019	-0.102 ± 0.13	-0.0941 ± 0.099
GUUAUG	1.929 ± 0.0065	1.99 ± 0.0045	0.244 ± 0.011	0.431 ± 0.16
UAAUCU	2.021 ± 0.012	2.046 ± 0.0022		
UAAUCA	1.945 ± 0.013	1.97 ± 0.04		
UAAUCC	2.001 ± 0.0044	2.03 ± 0.03		
UAAUCG	1.795 ± 0.012	1.988 ± 0.016		
AAAUUA	1.97 ± 0.012	1.99 ± 0.03		
GAAGUC	2.05 ± 0.021	2.04 ± 0.026		

Variant	normalized RNA/DNA level without ligand (log10) ((6R,S)-folinic acid [1])	normalized RNA/DNA level with ligand (log10) ((6R,S)-folinic acid [2])	FACS-Seq fitted mean (log10) ((6R,S)-folinic acid [3])	FACS-Seq fitted mean (log10) ((6R,S)-folinic acid [4])
UUUAUG	1.79 ± 0.024	1.96 ± 0.041	0.307 ± 0.0054	0.315 ± 0.17
GUUAGG	1.938 ± 0.0023	2 ± 0.031	0.206 ± 0.031	0.301 ± 0.51
UUUUGG	1.8812 ± 0.0015	2.01 ± 0.028	0.169 ± 0.054	0.473 ± 0.2
UUUUGA	1.976 ± 0.013	2.02 ± 0.036	0.586 ± 0.1	0.704 ± 0.022
CAACAG	1.976 ± 0.00034	2.01 ± 0.062		
CAACAA	1.966 ± 0.015	1.99 ± 0.032		
CAACAU	1.978 ± 0.0086	2.02 ± 0.057		
CAACAC	2.0222 ± 0.00082	2.014 ± 0.019		
GUUCAA	1.98 ± 0.023	1.98 ± 0.023	0.497 ± 0.083	0.591 ± 0.17
GUUCAC	2.041 ± 0.016	2.032 ± 0.014	0.0291 ± 0.011	-0.0744 ± 0.017
GAACUC	2.044 ± 0.0052	2.028 ± 0.012		
GAACUA	1.9884 ± 0.0016	2 ± 0.055		
GAACUG	1.971 ± 0.0088	1.99 ± 0.028		
GAACUU	2.002 ± 0.013	1.98 ± 0.028		
GACAAG	1.9442 ± 0.00015	2.008 ± 0.02		
AAAACC	2.0338 ± 0.0018	2.02 ± 0.048		
GAAGGA	1.952 ± 0.0097	2.009 ± 0.014		
GAAGGU	1.974 ± 0.0097	2.02 ± 0.043		
GAAGGG	1.87 ± 0.00046	2.03 ± 0.043		
UUUCCG	1.918 ± 0.012	1.99 ± 0.05	0.446 ± 0.012	0.493 ± 0.15
AAAUGU	1.9431 ± 0.0016	1.99 ± 0.028		
AAACUA	1.9744 ± 0.0006	2 ± 0.038		
AAACUU	2.007 ± 0.0031	2.02 ± 0.024		
AAACUC	2.0456 ± 0.00044	2.03 ± 0.049		
